Results reported in US20040175379A1 (AbbVie / Abbott, published 2004).

T1: biotinylated EpoR (Abbott CHO cell derived ref.#RB69084:4) (UniProt P19235 25-250, limits assumed, biotinylated with biotin-NHS (sites not given))
T1 construct: also called biotin EpoR; biotin-EpoR
T1 sequence (looked up): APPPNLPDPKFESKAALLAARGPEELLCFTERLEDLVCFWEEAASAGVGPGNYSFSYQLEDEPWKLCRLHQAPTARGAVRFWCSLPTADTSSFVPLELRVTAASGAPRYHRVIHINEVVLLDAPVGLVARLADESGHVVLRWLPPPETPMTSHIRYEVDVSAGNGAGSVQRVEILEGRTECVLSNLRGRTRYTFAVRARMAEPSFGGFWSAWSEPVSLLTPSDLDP

T2: soluble human EPO receptor (human, UniProt P19235 25-250, limits assumed)
T2 construct: Only called 'soluble'
T2 sequence (looked up): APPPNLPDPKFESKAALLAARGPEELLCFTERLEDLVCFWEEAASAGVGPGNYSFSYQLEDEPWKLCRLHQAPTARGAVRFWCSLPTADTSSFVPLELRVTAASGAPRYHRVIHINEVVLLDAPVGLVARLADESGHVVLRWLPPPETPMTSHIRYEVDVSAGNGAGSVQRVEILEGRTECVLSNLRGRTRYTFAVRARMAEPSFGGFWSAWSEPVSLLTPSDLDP


Biological target: T1, biotinylated EpoR (Abbott CHO cell …)
Test: ELISA, biotin-EpoR on streptavidin plate, HEK 293 supernatant titrated 1:2
Procedure: The ELISA for antigen specific antibody secretion was performed as follows. Control plates were coated with […] Goat anti-human IgG H+L O/N. For the binding plates, biotin-EpoR (0.7 mcg/mL) was coated onto streptavadin 96 well plates (Sigma, St Louis, Mo.) for one hour at room temperature. The plates were washed five times with dH₂O. Recombinant antibodies were titrated 1:2 for 7 wells from the undiluted minilipofection supernatant. The plates were washed five times with dH₂O. A goat anti-human IgG Fc-specific HRP-conjugated antibody was added at a final concentration of 1 ug/mL for 1 hour at RT for the secretion and the binding ELISA. The plates were washed five times with dH₂O. The plates were developed with the addition of TMB chromogenic substrate (KPL, Gaithersburg, Md.) for 30 minutes and the ELISA was stopped by the addition of 1 M phosphoric acid. Each ELISA plate was analyzed to determine the optical density of each well at 450 nm.

Binding (dilution of the supernatant in ELISA)	Binder
> 64 1:n dilution of supernatant	Ab12 (human anti-EPO-R antibody expressed by the cell line designated ABT2-SCX-012) (antibody, human IgG2, V domains shown, also called AB-ABT2-XG2-012; ABT2-XG2-012) VH: QVQLQESGPGLVKPSETLSLTCTVSGASISSYYWSWIRQPPGKGLEWIGYIYYSGSTNYNPSLKSRVTISVDTSKNQFSLKLRSVTAADTAVYYCARERLGIGDYWGQGTLVTVSS VL: DIQLTQSPSSLSASVGDRVTITCRASQGIRNDLGWYQQKPGKAPKRLIYAASSLQSGVPSRFSGSGSGTEFTLTISSLQPEDFATYYCLQHNTYPPTFGQGTKVEIK
8 1:n dilution of supernatant	human anti-EPO-R antibody expressed by the cell line designated ABT2-SCX-254 (antibody, human IgG2, V domains shown, also called Ab254) VH: QVQLVESGGGVVQPGRSLRLSCAASGFTFSSYGMHWVRQAPGKGLEWVAVIWFDGNNKFYADSVKGRFTISRDNSKNTLYLQMNSLRVEDTAVYYCARGGSYWDYWGQGTLVTVSS VL: DIVMTQTPLFSFVMIGQPASISCRSRQSLVHSDGNTYLNWLQQRPGQPPRLLIYKTSNRFSGVPDRFSGSGAGTDFTLKISRVEAEDVGVYYCMQATQFPITFGQGTRLEIK
> 64 1:n dilution of supernatant	human anti-EPO-R antibody expressed by the cell line designated ABT2-SCX-054 (antibody, V domains shown, also called ABT2-SCX-54; Ab54) VH: QVQLVESGGGVVQPGRSLRLSCAASGFTFSKYGMHWVRQAPGKGLEWVAVLWYDGSNKYYADSVKGRFTISRDNSKNTLYLQMNSLRAEDTAVYYCARGPYYFDYWGQGTLVTVSS VL: not shown
> 64 1:n dilution of supernatant	human anti-EPO-R antibody expressed by the cell line designated ABT2-SCX-060 (antibody, human IgG2, V domains shown, also called Ab60) VH: QVQLVESGGGVVQPGRSLRLSCAASGFTFSSYGMHWVRQAPGKGLEWVAVISYDGSNKYYADSVKGRFTISRDNSKNTLYLQMNSLRVEDTAVYYCARDHGGRYVYDYGMDVWGQGTTVTVSS VL: DIQMTQSPSSVSASVGDRVSITCRASQGISSWLAWYQQKPGKAPTLLIYAASSLQRGVPSRFSGSGSGTDFTLTISSLQPEDFATYFCQQANSFPFTFGPGTKVDIK
4 1:n dilution of supernatant	human anti-EPO-R antibody expressed by the cell line designated ABT2-SCX-135 (antibody, human IgG2, V domains shown, also called Ab135) VH: QVQLVESGGGVVQPGRSLRLSCAASGFTFSSYGMHWVRQAPGKGLEWVAVISYDGSNKYYADSVKGRFTISRDNSKNTLYLQMNSLRVEDTAVYYCARDHGGRYVYDYGMDVWGQGTTVTVSS VL: DIQMTQSPSSVSTSVGDRVSITCRASQGIGSWLAWYQQKPGQAPTLLIYAASSLQRGVPSRFSGSGSGTDFTLTINSLQPEDFATYFCQQANSFPFTFGPGTKVDVK
> 64 1:n dilution of supernatant	human anti-EPO-R antibody expressed by the cell line designated ABT2-SCX-145 (antibody, human IgG2, V domains shown, also called Ab145) VH: QVQLVESGGGVVQPGRSLRLSCAASGFTFSSYGMHWVRQAPGKGLEWVAVISYDGSNKYYADSVKGRFTISRDNSKNTLYLQMNSLRVEDTAVYYCARDHGGRYVYDYGMDVWGQGTTVTVSS VL: DIQMTQSPSSVSASVGDRVSITCRASQGIGSWLAWYQQKPGQAPTLLIYAASSLQRGVPSRFSGSGSGTDFTLTINSLQPEDFATYFCQQANSFPFTFGPGTKVDVK
> 64 1:n dilution of supernatant	human anti-EPO-R antibody expressed by the cell line designated ABT2-SCX-003 (antibody, human IgG2, V domains shown, also called Ab3) VH: QVQLVESGGGVVQPGRSLRLSCAASGFTFSSYGMHWVRQAPGKGLEWVAVISYDGSNKYYADSVKGRFTISRDNSKNTLYLQMNSLRVEDTAVYYCARDHGGRYVYDYGMDVWGQGTTVTVSS VL: DIQMTQSPSSVSASVGDRVSITCRASQGISSWLVWYQQKPGKAPALLIYAASSLQRGVPSRFSGSGSGTDFTLTISSLQPEDFATYFCQQANSFPFTFGPGTKVDIK
> 64 1:n dilution of supernatant	human anti-EPO-R antibody expressed by the cell line designated ABT2-SCX-267 (antibody, human IgG2, V domains shown, also called Ab267) VH: QVQLVESGGGVVQPGRSLRLSCAASGFTFSSYGMHWVRQAPGKGLEWVAVISYDGSNKYYADSVKGRFTISRDNSKNTLYLQMNSLRVEDTAVYYCAKDHGGRYVYDYGMDVWGQGTTVTVSS VL: DIQMTQSPSSVSASVGDRVSITCRASQGIGSWLAWYQQKPGQAPTLLIYAASSLQRGVPSRFSGSGSGTDFTLTINSLQPEDFATYFCQQANSFPFTFGPGTKVDVK
> 64 1:n dilution of supernatant	human anti-EPO-R antibody expressed by the cell line designated ABT2-SCX-102 (antibody, human IgG2, V domains shown, also called Ab102) VH: QVQLVESGGGVVQPGRSLRLSCAASGFTFSSYGMHWVRQAPGKGLEWVAVISYDGSNKYYADSVKGRFTISRDNSKNTLYLQMNSLRVEDTAVYYCARDHGGRYVYDYGMDVWGQGTTVTVSS VL: DIQMTQSPSSVSASVGDRVSITCRASQGISSWLAWYQQKPGKAPKRLIYAASSLQRGVPSRFSGSGSGTDFTLTISSLQPEDFATYFCQQANSFPFTFGPGTKVDIK
> 64 1:n dilution of supernatant	human anti-EPO-R antibody expressed by the cell line designated ABT2-SCX-022 (antibody, human IgG2, V domains shown, also called Ab22) VH: QVQLVESGGGVVQPGRSLRLSCAASGFTFSSYGMHWVRQAPGKGLEWVVVISYDGSNKYYADSVKGRFTISRDNSKNTLYLQMNSLRVEDTAVYYCARDHGGRYVYDYGMDVWGQGTTVTVSS VL: DIQMTQSPSSVSASVGDRVSITCRASQGISSWLAWYQQKPGKAPTLLIYAASSLQRGVPSRFSGSGSGTDFTLTISSLQPEDFATYFCQQANSFPFTFGPGTKVDIK
> 64 1:n dilution of supernatant	Ab198 (human anti-EPO-R antibody expressed by the cell line designated ABT2-SCX-198) (antibody, human IgG2, V domains shown) VH: QVQLVESGGGVVQPGRSLRLSCVASGFTFSSYGMHWVRQAPGKGLEWVAVISYDGSNKYYADSVKGRFTISRDNSKNTLYLQMNSLRVEDTAVYYCARDHGGRYVYDYGMDVWGQGTTVTVSS VL: DIQMTQSPSSVSASIGDRVSITCRASQGISSWLAWYQQKPGKAPTLLIYAASTLQRGVPSRFSGSGSGTDFTLTISSLQPEDFATYFCQQANSFPFTFGPGTKVDIK

Biological target: T2, soluble human EPO receptor
Test: SPR (Biacore 2000), antibody immobilised on the chip, soluble receptor 10-200 nM injected
Procedure: Immobilizations of antibody were performed using the default immobilization program in the Biacore software package. Antibodies were diluted to 10 ug/mL in the supplied acetate buffers to prescreen for the appropriate pH at which to conduct the immobilizations. For immobilizations, antibodies were diluted into the appropriate acetate buffer (10 mM acetate pH 4.0) and coupled directly to the chip surface using standard EDC chemistry at three different protein levels (500, 1000, and 1500 RU). The fourth flow cell was mock coupled with EDC to cap the carboxyl groups and provide a background surface as a negative control.
Binding studies were performed by successive injections of varying concentrations of soluble human EPO receptor over the chip surface (500 RU immobilized protein). […]
Data were fit to the models available in the BiaEvaluation 3.0.2 software package (Biacore). […] Dissociation constants were calculated directly from fitting to the Langmuir binding model. For the bivalent analyte model, the dissociation constants were calculated indirectly using the calculated values for the kinetic dissociation and kinetic association constants, kd and kₐ.

Kd	Binder
0.0175 µM	Ab12 (human anti-EPO-R antibody expressed by the cell line designated ABT2-SCX-012) (antibody, human IgG2, V domains shown, also called AB-ABT2-XG2-012; ABT2-XG2-012) VH: QVQLQESGPGLVKPSETLSLTCTVSGASISSYYWSWIRQPPGKGLEWIGYIYYSGSTNYNPSLKSRVTISVDTSKNQFSLKLRSVTAADTAVYYCARERLGIGDYWGQGTLVTVSS VL: DIQLTQSPSSLSASVGDRVTITCRASQGIRNDLGWYQQKPGKAPKRLIYAASSLQSGVPSRFSGSGSGTEFTLTISSLQPEDFATYYCLQHNTYPPTFGQGTKVEIK
0.0139 µM	Ab198 (human anti-EPO-R antibody expressed by the cell line designated ABT2-SCX-198) (antibody, human IgG2, V domains shown) VH: QVQLVESGGGVVQPGRSLRLSCVASGFTFSSYGMHWVRQAPGKGLEWVAVISYDGSNKYYADSVKGRFTISRDNSKNTLYLQMNSLRVEDTAVYYCARDHGGRYVYDYGMDVWGQGTTVTVSS VL: DIQMTQSPSSVSASIGDRVSITCRASQGISSWLAWYQQKPGKAPTLLIYAASTLQRGVPSRFSGSGSGTDFTLTISSLQPEDFATYFCQQANSFPFTFGPGTKVDIK
